Test results taken from patent US20150239954.

Target: T1, E(Edans)-AAHisAAK-(Dabsyl)-NH2 (not fully specified)
T1 chain: AAHAAK

B1: aspergillopepsin II (An01g00530) (protein)
chain: EDYSSNWAGAVLIGDGYTKVTGEFTVPSVSAGSSSSSGYGGGYGYYKNKRQSEEYCASAWVGIDGDTCETAILQTGVDFCYEDGQTSYDAWYEWYPDYAYDFNDITISEGDTIKVTVEATSKSSGSATVENLTTGQSVTHTFSGNVEGDLCETNAEWIVEDFESGDSLVAFADFGSVTFTNAEATSDGSTVGPSDATVMDIEQDGTVLTETSVSGDSVTVTYV
  enzyme activity in relative fluorescent units (rfu) per minute per mg of protein; cleavage of FRET peptide substrates at pH 4: yields the highest rfu value for aspergillopepsin II
